Here are results for twelve sequences from the Immune Epitope Database (IEDB).

The target of one assay is HLA-B*08:01. Kind of assay: IEDB peptide-MHC binding, purified MHC/competitive/fluorescence; ≥ and ≤ were set here for values at or beyond the usual limits of such assays.
Another assay addresses HLA-A*24:02. Described as above.
The target in assay [1] is HLA-B*15:01. The description is as above.
The target in another assay is HLA-B*15:17. As to the kind of experiment: IEDB peptide-MHC binding, purified MHC/competitive/fluorescence; filed as Kd, often an IC50 or EC50 that approximates it; ≥ and ≤ were set here for values at or beyond the usual limits of such assays. Particulars: source organism: Zaire ebolavirus.
In assay [2] the target is HLA-B*18:01. The assay is described as above.
A further assay addresses HLA-A*69:01. The description is as above.
A further assay addresses HLA-B*57:01. Described as above.
For a further assay, the target named is HLA-B*51:01. Described as above.
The target of a further assay is HLA-B*27:03. The assay is described as above.
The target of the next assay is HLA-B*39:01. The assay is described as above.
For a further assay, the target named is HLA-B*46:01. Described as above.
The next assay has as its target HLA-A*26:01. Described as above.
In assay [3] the target is HLA-A*02:01. The description is as above.
Assay [4] concerns the target HLA-A*02:03. Kind of assay: IEDB peptide-MHC binding, purified MHC/direct/fluorescence; filed as Kd, often an IC50 or EC50 that approximates it; ≥ and ≤ were set here for values at or beyond the usual limits of such assays. Particulars: source organism: Zaire ebolavirus.
The target in a further assay is HLA-A*29:02. The description is as above. To be noted: source organism: Zaire ebolavirus.
Assay [5] addresses HLA-A*02:11. Described as above. To be noted: source organism: Zaire ebolavirus.
The target of the next assay is HLA-A*68:02. The assay is described as above. Particulars: source organism: Zaire ebolavirus.
Assay [6] has as its target HLA-A*02:19. Described as above. Particulars: source organism: Zaire ebolavirus.
Assay [7] deals with HLA-A*02:12. The assay is described as above. Particulars: source organism: Zaire ebolavirus.
Another assay has as its target HLA-A*24:03. The description is as above. To be noted: source organism: Zaire ebolavirus.
The target of assay [8] is HLA-A*03:01. Described as above. Particulars: source organism: Zaire ebolavirus.
A further assay addresses HLA-A*02:16. The description is as above. Particulars: source organism: Zaire ebolavirus.
The target of assay [9] is HLA-B*15:01. The assay is described as above. To be noted: source organism: Zaire ebolavirus.
Assay [10] addresses HLA-A*02:01. Kind of assay: IEDB peptide-MHC binding, purified MHC/competitive/fluorescence; ≥ and ≤ were set here for values at or beyond the usual limits of such assays.
The target in assay [11] is HLA-A*02:03. Kind of assay: IEDB peptide-MHC binding, purified MHC/competitive/fluorescence; filed as Kd, often an IC50 or EC50 that approximates it; ≥ and ≤ were set here for values at or beyond the usual limits of such assays.
For assay [12], the target named is HLA-A*02:11. Described as above.
In assay [13] the target is HLA-A*02:19. The description is as above.
In a further assay the target is HLA-A*02:06. Described as above.
The target of the next assay is HLA-C*14:02. As to the kind of experiment: IEDB peptide-MHC binding, purified MHC/direct/fluorescence; filed as Kd, often an IC50 or EC50 that approximates it; ≥ and ≤ were set here for values at or beyond the usual limits of such assays. Particulars: source organism: Vibrio vulnificus YJ016.
The next assay deals with HLA-B*40:02. As to the kind of experiment: IEDB peptide-MHC binding, purified MHC/competitive/radioactivity; filed as Kd, often an IC50 or EC50 that approximates it; ≥ and ≤ were set here for values at or beyond the usual limits of such assays.
The target of the next assay is HLA-B*44:03. Described as above.
The target of the next assay is HLA-B*40:01. Described as above.
In assay [14] the target is HLA-B*18:01. The description is as above.
In another assay the target is HLA-B*44:02. Described as above.
The target in another assay is HLA-B*45:01. The assay is described as above.
For assay [15], the target named is HLA-A*02:12. As to the kind of experiment: IEDB peptide-MHC binding, purified MHC/competitive/fluorescence; filed as Kd, often an IC50 or EC50 that approximates it; ≥ and ≤ were set here for values at or beyond the usual limits of such assays. To be noted: source organism: Yersinia pestis Nepal516.
Assay [16] deals with HLA-A*03:01. The assay is described as above. Particulars: source organism: Yersinia pestis Nepal516.
Assay [17] deals with HLA-B*15:01. The description is as above. Particulars: source organism: Yersinia pestis Nepal516.
The mark [18] stands for this setting: source organism: Zaire ebolavirus.
The mark [19] stands for this setting: source organism: Human immunodeficiency virus 1.
Setting [20] is: source organism: Vibrio vulnificus YJ016.
Setting [21] is: source organism: SARS coronavirus Tor2.
Where [22] appears, read: source organism: Lassa virus Josiah.
Where [23] appears, read: source organism: Yersinia pestis Nepal516.
[24] abbreviates: source organism: Sudan ebolavirus.
The mark [25] stands for this setting: source organism: Mammarenavirus guanaritoense.

As a reminder, the IC50 is the point on the concentration scale where inhibition reaches its midpoint. A lower IC50 goes with greater potency. A word on the Kd: it is the equilibrium constant for the complex coming apart. Regarding HQKKNEISF, the IC50 in the assay with HLA-B*08:01 (setting [18]) is 42.2 µM; with HLA-A*24:02 (setting [18]) it was at least 116 µM; with HLA-B*15:01 [1] (setting [18]) it was 6.66 µM. Moreover, the Kd with HLA-B*15:17, with HLA-B*18:01 [2] (setting [18]), in the assay with HLA-A*69:01 (setting [18]), in the assay with HLA-B*57:01 (setting [18]), in the assay with HLA-B*51:01 (setting [18]) and with HLA-B*27:03 (setting [18]) was at least 20 µM each time. For the same sequence, the Kd in the assay with HLA-B*39:01 (setting [18]), with HLA-B*46:01 (setting [18]), with HLA-A*26:01 (setting [18]), with HLA-A*02:01 [3] (setting [18]), with HLA-A*02:03 [4] and in the assay with HLA-A*29:02 was at least 20 µM each time. Besides, the Kd with HLA-A*02:11 [5], with HLA-A*68:02, in the assay with HLA-A*02:19 [6], in the assay with HLA-A*02:12 [7], with HLA-A*24:03 and in the assay with HLA-A*03:01 [8] was at least 20 µM each time. Further, the Kd is at least 20 µM with HLA-A*02:16 and 0.233 µM with HLA-B*15:01 [9].

In the case of HSQGREAAV, the IC50 with HLA-B*08:01 (setting [18]) was at least 172 µM; in the assay with HLA-A*02:01 [10] (setting [18]), at least 254 µM.

For MMKDEPVVF, the IC50 with HLA-B*08:01 (setting [18]) was at least 205 µM; with HLA-A*24:02 (setting [18]), 0.218 µM; in the assay with HLA-B*15:01 [1] (setting [18]) it was 8.81 µM; with HLA-A*02:01 [10] (setting [18]) it was at least 116 µM.

Take NFLIKFLLI: the IC50 with HLA-B*08:01 (setting [18]) is at least 1610 µM; with HLA-A*24:02 (setting [18]), 0.0094 µM; with HLA-A*02:01 [10] (setting [18]), at least 614 µM.

NTVATLYCV: the Kd with HLA-A*02:03 [11] (setting [19]) is 0.0135 µM; with HLA-A*02:11 [12] (setting [19]), 0.0007 µM; with HLA-A*02:19 [13] (setting [19]), 0.0107 µM; with HLA-A*69:01 (setting [19]), at most 0.001 µM; with HLA-A*02:06 (setting [19]), at most 0.0001 µM; with HLA-A*02:01 [3] (setting [19]) it was 0.215 µM.

In the case of RQIQGIAAF, the Kd in the assay with HLA-A*02:06 (setting [20]) was 0.0133 µM; in the assay with HLA-A*02:01 [3] (setting [20]) it was 1.65 µM; with HLA-C*14:02 it was 2.62 µM.

For the sequence SEAREHLKNG, the Kd was 6.59 µM in the assay with HLA-B*40:02 (setting [21]); at least 28.1 µM with HLA-B*44:03 (setting [21]); at least 39.3 µM in the assay with HLA-B*40:01 (setting [21]); at least 70.5 µM with HLA-B*18:01 [14] (setting [21]); at least 36.2 µM with HLA-B*44:02 (setting [21]); 8.32 µM in the assay with HLA-B*45:01 (setting [21]).

On to SEGKDTPGGY, for which the dissociation constant Kd was at least 70.8 µM with HLA-B*40:02 (setting [22]); 1.75 µM in the assay with HLA-B*44:03 (setting [22]); at least 25.4 µM with HLA-B*40:01 (setting [22]); at least 59.6 µM with HLA-B*18:01 [14] (setting [22]); 1.45 µM with HLA-B*44:02 (setting [22]); at least 70 µM with HLA-B*45:01 (setting [22]).

As to SMLCWLGMT, the Kd is at least 20 µM in the assay with HLA-A*02:03 [11] (setting [23]); 0.0512 µM with HLA-A*02:11 [12] (setting [23]); at least 20 µM with HLA-B*18:01 [2] (setting [23]); at least 20 µM in the assay with HLA-A*02:19 [13] (setting [23]); at least 20 µM with HLA-B*57:01 (setting [23]); at least 20 µM with HLA-B*51:01 (setting [23]). The Kd in the assay with HLA-B*27:03 (setting [23]) was at least 20 µM; with HLA-A*02:12 [15] it was 0.577 µM; with HLA-B*39:01 (setting [23]), at least 20 µM; with HLA-B*46:01 (setting [23]) it was at least 20 µM; with HLA-A*03:01 [16], at least 20 µM; with HLA-A*26:01 (setting [23]) it was at least 20 µM. Moreover, the Kd with HLA-B*15:01 [17] was at least 20 µM.

Consider TEIEPKLDG, for which the Kd in the assay with HLA-B*40:02 (setting [21]) is at least 74.8 µM; with HLA-B*44:03 (setting [21]), 13.4 µM; with HLA-B*40:01 (setting [21]) it was at least 76.2 µM; with HLA-B*18:01 [14] (setting [21]), at least 77.5 µM; in the assay with HLA-B*44:02 (setting [21]) it was 17.9 µM; with HLA-B*45:01 (setting [21]), at least 28.6 µM.

As for TVIYRGVNF, the IC50 was at least 88 µM in the assay with HLA-B*08:01 (setting [24]), 3.58 µM with HLA-A*24:02 (setting [24]), 28.3 µM in the assay with HLA-B*15:01 [1] (setting [24]) and at least 790 µM in the assay with HLA-A*02:01 [10] (setting [24]).

Take YEERLNEQLL: the Kd in the assay with HLA-B*40:02 (setting [25]) was 1.64 µM; in the assay with HLA-B*44:03 (setting [25]), 14.6 µM; with HLA-B*40:01 (setting [25]) it was 2.48 µM; in the assay with HLA-B*18:01 [14] (setting [25]) it was 5.99 µM; with HLA-B*44:02 (setting [25]), at least 10 µM; with HLA-B*45:01 (setting [25]), at least 70 µM.
